Laboratory results published in publication PMC6010298.

Tests used:
[1] = test system: ComE T128A (Hisx6) (Streptococcus pneumoniae R801); assay: EMSA
[2] = test system: ComE T128E (Hisx6) (Streptococcus pneumoniae R801); assay: EMSA
[3] = test system: ComE wt (Hisx6) (Streptococcus pneumoniae R801); assay: EMSA
[4] = test system: ComE D58E (Hisx6) (Streptococcus pneumoniae R801); assay: EMSA
[5] = target: His6-tagged ComE (response regulator ComE, wild type); assay: Sandwich fluorescence-linked immunosorbent assay (FLISA); conditions: no added salt stated (50 mM Bis-Tris-Propane-HCl, 1 mM MgCl2), 1 mM MgCl2, pH 7.8 or the same buffer at pH 6.0
[6] = target: His6-tagged ComE T128A (non-phosphorylatable) T128A; assay: as above; conditions: no added salt stated (50 mM Bis-Tris-Propane-HCl, 1 mM MgCl2), 1 mM MgCl2, pH 7.8 or the same buffer at pH 6.0
[7] = target: His6-tagged ComE T128E (phosphomimetic) T128E; assay: as above; conditions: no added salt stated (50 mM Bis-Tris-Propane-HCl, 1 mM MgCl2), 1 mM MgCl2, pH 7.8 or the same buffer at pH 6.0
[8] = pH 6.0, 37°C (binding step, 1 h)
[9] = pH 7.8, 37°C (binding step, 1 h)

Substance	Kd [1] [nM]	Kd [2] [nM]	Kd [3] [nM]	Kd [4] [nM]	K1/2 [5, 8] [ng]	K1/2 [5, 9] [ng]	K1/2 [6, 8] [ng]	K1/2 [6, 9] [ng]	K1/2 [7, 8] [ng]	K1/2 [7, 9] [ng]
pcomC (comCDE promoter)	375	74	371	21						
GST-StkP K42M (kinase-inactive) K42M					55	140	100	80		
GST-StkP (serine/threonine protein kinase StkP, wild type)					94	330	100	110	3200	900
